Measured values reported in the nanobody polyreactivity screen of Harvey et al. (2022).

Experiment: yeast display, Sf9 membrane polyspecificity reagent, FACS + sequencing; frameworks hold sequencing errors
How it was run: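 In a synthetic yeast display library (Saccharomyces cerevisiae BJ5465), nanobody expression was induced with galactose for 36–48 hours. FACS gates were set low and high (top ~1%) using anti-HA fluorescence for expression and streptavidin fluorescence for binding of the Sf9 membrane reagent. Each polyreactivity label is drawn from the gate of origin.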

Row | Sequence | polyreactivity (PSR sort gate)
1 | QVQLVESGGGLVQAGGSLRLSCAASGFIFGGYAMGWYRQAPGKERELVAAISYGGGSTYYADSVNGRFTISRYNAKNTVYLQMNSLKPEDTAVYYCAADIPGYRYTGYRRGYWGQGTQVTVSS | high polyreactivity
2 | QVQLVESGGGLVQAGGSLRLSCAASGFIFGHNAMGWYRQAPGKERELVADITWSGGSTYYADSVKGRFTISRDNAKNTVYLQMNSLKPEDTAVYYCNARGRASATGRRGRPDPFGYWGQGTQVTVSS | high polyreactivity
3 | QVQLVESGGGLVQAGGSLRLSCAASGFIFGHNAMGWYRQAPGKQRELVAAITYSGGSTYYADSVKGRFTISRDNAKNTVYLQMNSLKPEDTAVSYSAASNQWSSTYLTYGYYYWGQGTQVTVSS | low polyreactivity
4 | QVQLVESGGGLVQAGGSLRLSCAASGFIFGKYAMGWYRQAPRKERELGAAISKSGGSTYYADSVKGRFTISRDNAKNTVYLQMNSLKPEDTAVYYCAARSLGHYGSWGQGTQVTVSS | high polyreactivity
5 | QVQLVESGGGLVQAGGSLRLSCAASGFIFGLYAMGWYRQAPGKETELVATISWDGGSTYYADSVKGRFTISRDNAKNTVYLQMNSLKPEDTAVYYCAATYLYRSPYVPMDYWGQGTQVTVSS | low polyreactivity
6 | QVQLVESGGGLVQAGGSLRLSCAASGFIFGLYDMGWDRQAPGKERELVATISDSGGDTYYSDSVKGRFTISRDNAKNTVYLQMNSMKPEDTAVYYCAAKYVYGRGIRAYDYWVQGTQVTVSS | high polyreactivity
7 | QVQLVESGGGLVQAGGSLRLSCAASGFIFGNYAMGWYRQAPGKERELVATITRRGGRTYYADSVKGRFTISRDIAKNTVYLQMTSLKPEDTAVYYCNARPSRWAREGYWGQGTQVTVSS | high polyreactivity
8 | QVQLVESGGGLVQAGGSLRLSCAASGFIFGPNAMGWYRQAPGKERELVAAITLSGGSTYYADSVKGRFTISRDNAKNTVYLQMNSLKPEDTAVYYCATTYYHNYLLYGYWGQGTQVTVSS | low polyreactivity
9 | QVQLVESGGGLVQAGGSLRLSCAASGFIFGQYAMGWYRQAPGKERELVATINRSGGSTYYADSVKGRFTISRDNAKNTVYLQMNSLKPEDTAVYYCAKGPRISSSLRYSAYWKMNYWGQGTQVTVSS | high polyreactivity
10 | QVQLVESGGGLVQAGGSLRLSCAASGFIFGRYAMGWYRQAPGKERELVAAISSGDDTDYADSVKGRFTISRYNAKNTVYLLMNSLIPEDTAVYYCARSRFWSPVNYRRTIEFDSWGQGTQVTVSS | low polyreactivity
11 | QVQLVESGGGLVQAGGSLRLSCAASGFIFGRYAMGWYRQAPGKERELVAAITSGGRTYYADSVKGRFTISRDNAKNTVYLQMNSLKPEDTAVYYCAKRVGRYWTAGYYWGQGTQVTVSS | high polyreactivity
12 | QVQLVESGGGLVQAGGSLRLSCAASGFIFGRYTMGWYSQAPGKERELVAAISSRGGSTYYADSVKGRFTISRDNAKNTVYLQMNSLKPEDTAVYYCAADEIYGYDYWGQGTQVTVSS | high polyreactivity
13 | QVQLVESGGGLVQAGGSLRLSCAASGFIFGSIVMGWYRQAPGKERELVAAISKRGGTTYYADSVKGRFTISRDNAKNPVYLQMNSLKPEDTAVYYCAVEWCFRRNGRMDYWGQGTQVTVSS | high polyreactivity
14 | QVQLVESGGGLVQAGGSLRLSCAASGFIFGSYAMGWYRQAPGKERELVAAITRSGGNTYYADSVKVRFTISRDNAKNTVYLQMNSLKPEDTAVYYCAAYSGYWYDYWGQGTQVTVSS | high polyreactivity
15 | QVQLVESGGGLVQAGGSLRLSCAASGFIFGTYAMGWYIQAPGKERELVAAISTGATYYADSVKGRFTISRDNAKNTVYLQMNSLKPEDTAVYYCAAPRTYYLRYRWYLYEGDYWGQGTQVTVTS | low polyreactivity
16 | QVQLVESGGGLVQAGGSLRLSCAASGFIFGTYAMGWYRQAPGKERELVAAISRSGGSTSYADSVKGRFTISRDNAKNTVYLQMNSLKPEDTAVYYCNKRLLRFPYWGYDYWGQGTQVTVSS | high polyreactivity
17 | QVQLVESGGGLVQAGGSLRLSCAASGFIFGTYAMGWYRQAPGKERELVAAISRVGNTSYADSVKGRFTISRDNAKNTVYLQMNSLKPEDTAVYYCAADAPSWYDRQYDYWGQGTQVTVSS | low polyreactivity
18 | QVQLVESGGGLVQAGGSLRLSCAASGFIFGVNAMGWYRQAPGKERDLVAAITRNGGSTYYADSVKGRFTISRDNAKNTVYLQMNSLKPEDTAVYYCAKYVRRAPSTFDVDYWGQGTQVTVSS | high polyreactivity
19 | QVQLVESGGGLVQAGGSLRLSCAASGFIFGWYGMGWDRQARGKERELVAAITWSGVRTYYADSVKGRFTISRDNAKNTVYLQMNSLKPEDTAVYYCARAGGYVGRGYKDQDGRGDYWGQGTQVTVSS | high polyreactivity
20 | QVQLVESGGGLVQAGGSLRLSCAASGFIFGYNALGWYRQAPAKERELVAAITWIGGTTYYADSVKGRFTISRDNAKNTVYLQLNSLKPEDTAVYYCARQRSFGRSSYSHRYDYWGQGNQVTVSS | high polyreactivity
21 | QVQLVESGGGLVQAGGSLRLSCAASGFIFGYNAMDWYRQAPGKERELVAAITSGGSTNYADSVKGRFTISRDNAKNTVYLQMNSLKPEDTAVYYCNTVPGDFRSITDDDWGQGTQVTVSS | low polyreactivity
22 | QVQLVESGGGLVQAGGSLRLSCAASGFIFGYNAMGWSRQAPGKERELVAAITWSGGSTYYADSVKGRFTISRDIAKNTVYLQMNSLKPEDTAVYYCNWPGEGDYWGQGTQVTVSS | low polyreactivity

Row | Sequence | polyreactivity (PSR sort gate)
23 | QVQLVESGGGLVQAGGSLRLSCAASGFIFGYNAMGWYRKAPGTERELVAAITWIGGTTYYADSVKGRFTISRDNAKNTVYLQMNSLKPEDTAVYYCARQRSYGRSSYSYGYDYWGQGTQVTVSS | high polyreactivity
24 | QVQLVESGGGLVQAGGSLRLSCAASGFIFGYNAMGWYRQAPGKERELVAAINWSGGRTYYADSVKGRFTISRDNPKNTVYLQMNSLKPEDTAVSYCNADGSRRYNYWGQGTQVTVSS | low polyreactivity
25 | QVQLVESGGGLVQAGGSLRLSCAASGFIFGYNAMGWYRQAPGKERELVAAIRAGDGSTYYADSVKGRFTISRDNAKNTVYLQMNSLKPEDTAVYYCAAAWRQSGYRYGYWGQGTQVTVAS | high polyreactivity
26 | QVQLVESGGGLVQAGGSLRLSCAASGFIFGYNAMGWYRQAPGKERELVAAITASGGSTYYADSVKGRFTISRDNAKNTVYLQMNSLKPEDTAVYYCATVLRKNGERVNRLYYWGQGTQVTVSS | high polyreactivity
27 | QVQLVESGGGLVQAGGSLRLSCAASGFIFGYNAMGWYRQAPGKERELVAAITRGGITYYADSVKGRFTISRDNAKYTVYLQMNSLKPEDTAVYYCASDWSVVYTDYDSWGHGTQVTVSS | low polyreactivity
28 | QVQLVESGGGLVQAGGSLRLSCAASGFIFGYNAMGWYRQAPGKERELVAAITWSGGSTYYADSVKGRFTISRDNAKNTVYLQMNSLKPEDTAVDYCNWPGEGDYWGQGTQVTVSS | low polyreactivity
29 | QVQLVESGGGLVQAGGSLRLSCAASGFIFGYNAMVWYRQAPGKERELVARINSGGNTNYADSVKGRFTISRDNAKNTVYLQMNSLKPDDTAVYYCARDASNRYDYWGQGTLVTVSS | low polyreactivity
30 | QVQLVESGGGLVQAGGSLRLSCAASGFIFGYYAMGWYRQAPGKERELVAAITSGGSTYYADSVKGRFTISRDNAKNTVYLQMNSLKPEDTAVYYCAAGWWYYLHMDYWGQGTQVTVSS | high polyreactivity
31 | QVQLVESGGGLVQAGGSLRLSCAASGFIFGYYAMGWYRQAPGKERELVAAMSRGGITYYADSVNGRFTISRDNAKNTVYLQMNSLKPEDTAVYYCAAPNRYSVPMYYWGQGTQVTVSS | low polyreactivity
32 | QVQLVESGGGLVQAGGSLRLSCAASGFIFGYYAMGWYRQAPGKERELVARITSSGGSTYYADSVKGRFTISRDNAKNTVYLQMNSLKPEDTAVYYCAKSPRAPRYIPYGYWGQGTQVTVSS | high polyreactivity
33 | QVQLVESGGGLVQAGGSLRLSCAASGFIFGYYTMGWYRQAPGKERELVAAISSRGGSTYYAYSVKGRFTISRDNAKNTVYLQINSLKPEDTAVYYCAKRSTYTGSWWERGYCGQGTQVTVSS | high polyreactivity
34 | QVQLVESGGGLVQAGGSLRLSCAASGFIFHIYAMGWYRQAPGKERELVAVITSGGSTYYADSVKGRFTISRDNAKNTVYLQMNSLKPEDTAVYYCAARYRRSWLEYDYWGQGTQVTVSS | high polyreactivity
35 | QVQLVESGGGLVQAGGSLRLSCAASGFIFHKYVMGWYRQAPGKERELVAAISRSGASTYYADSVKGRFTISRDNAKNTVYFQMNSLKPEDTAVYYCAARYRRRVIATRDYWGQGTQVTVSS | high polyreactivity
36 | QVQLVESGGGLVQAGGSLRLSCAASGFIFHLYAMGWYRQAPGKERELVAVISGGGSTYYADSVKGRFTISRDNAKNTVYLQMNSLKPEDTAVYYCNVGRYYRYATGGDYWGQGTQVTVSS | high polyreactivity
37 | QVQLVESGGGLVQAGGSLRLSCAASGFIFHRYAMGWYRQAPGKERELVAAITGRGSSTYYADSVKGRFTISRDNAKNTVYLQMNSLKPEDTAVYYCNAYRYQVYDTGWFGYWGQGTQVTVSS | high polyreactivity
38 | QVQLVESGGGLVQAGGSLRLSCAASGFIFHRYVMGWSRQAPGKERELVAAISSGGSTNYADSVKGRFTISRDNAKNTVYLQMNSLKPEDTAVYYCAADGFYYRNWGRFRYYYWGQGTQVTVSS | low polyreactivity
39 | QVQLVESGGGLVQAGGSLRLSCAASGFIFHTYAMGWYRQAPGKERELVAAISGGTSSTYYADSVKGRFTISRDNAKNTVYLQMNSLKPEDTAVYYCAARSRRGGYPRYYYWGQGTQVTVSS | high polyreactivity
40 | QVQLVESGGGLVQAGGSLRLSCAASGFIFHVYAMGWYRQAPGKEREFVAGISWRGGRTYYADSVKGRFTISRDNAKNTVYLQLNSLKPEDTAVYYCAALGLNAGGKFDYWGQGTQVTVSS | high polyreactivity
41 | QVQLVESGGGLVQAGGSLRLSCAASGFIFIANGMGWNSQAPGKERALVAAITSGGGNTYYADSVKGRFTISRDNAKNTVYLQMNSLKPEDTAVYYCNAPSYGKFDYWGQGTQVTVSS | high polyreactivity
42 | QVQLVESGGGLVQAGGSLRLSCAASGFIFIAYVMGWYRQAPGKERELVAAITRSGASTYYADSVKGRFTISRDNAKNTVYLQMNSLKPVDTAVYYCAARGAYSFYGYYYWGQGTQVTVSS | high polyreactivity
43 | QVQLVESGGGLVQAGGSLRLSCAASGFIFINYAMGWNRPAPGKERELVAAISSRGGSTYYADSVKGRFTISRDNAKNTVYLQMNSLKPEDTAVYYCNADQSFRIVTFDYWGQGTQVTVSS | high polyreactivity
